The values below come from PMC8160739, “Mycobacterium tuberculosis Binds Human Serum Amyloid A, and the Interaction Modulates the Colonization of Human Macrophages and the Transcriptional Response of the Pathogen” (Cells, 2021).

Settings in all cases: both partners purified
In test [1] the target is T1, recombinant Mycobacterium tuberculosis rEspB (Mycobacterium tuberculosis H37Rv, UniProt P9WJD9 1-460).
T1 construct: also called pHis-espB product
The test is described as follows: far-Western, overlay or dot blot; recombinant Mtb proteins separated by reducing SDS-PAGE (12% gel), transferred to nitrocellulose, incubated 2 h at room temperature with biotin-labeled SAA1 at 10 µg/mL in PBS/0.05% Tween 20/0.1% BSA; streptavidin-peroxidase detection.

Test [2] addresses T2, recombinant Mycobacterium tuberculosis rTB18.6 (Mycobacterium tuberculosis H37Rv, UniProt P9WFN1 1-176).
T2 construct: also called pHis-tb18.6 product
T2 sequence: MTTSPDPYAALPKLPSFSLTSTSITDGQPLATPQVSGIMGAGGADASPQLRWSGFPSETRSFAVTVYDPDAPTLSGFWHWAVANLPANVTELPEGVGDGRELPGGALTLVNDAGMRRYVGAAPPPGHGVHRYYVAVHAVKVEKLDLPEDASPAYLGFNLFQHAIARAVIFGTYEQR
Described as above.

The target in test [3] is T3, recombinant Mycobacterium tuberculosis rThiC (Mycobacterium tuberculosis H37Rv, UniProt P9WG79 1-547).
T3 construct: also called pHis-thiC product
T3 sequence (P9WG79 whole entry): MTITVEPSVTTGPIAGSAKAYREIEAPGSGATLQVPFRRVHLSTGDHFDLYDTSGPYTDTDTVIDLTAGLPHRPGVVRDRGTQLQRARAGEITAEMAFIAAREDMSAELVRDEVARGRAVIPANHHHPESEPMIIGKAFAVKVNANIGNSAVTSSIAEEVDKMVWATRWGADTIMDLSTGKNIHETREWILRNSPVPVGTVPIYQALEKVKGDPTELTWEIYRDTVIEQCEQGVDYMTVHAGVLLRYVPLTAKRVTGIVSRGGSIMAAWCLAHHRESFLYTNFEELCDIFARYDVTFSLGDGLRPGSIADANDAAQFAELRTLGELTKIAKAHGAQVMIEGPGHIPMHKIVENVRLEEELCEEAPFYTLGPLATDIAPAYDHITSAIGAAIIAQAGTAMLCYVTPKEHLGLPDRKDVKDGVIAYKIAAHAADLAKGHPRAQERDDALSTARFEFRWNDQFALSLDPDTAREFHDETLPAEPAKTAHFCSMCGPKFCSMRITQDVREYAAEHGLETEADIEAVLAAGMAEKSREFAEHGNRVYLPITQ
The description is as above.

Test [4] addresses T4, recombinant Mycobacterium tuberculosis rAtpA (Mycobacterium tuberculosis H37Rv, UniProt P9WPU7 1-549).
T4 construct: also called pHis-atpA product
Described as above.

Test [5] concerns the target T5, recombinant Mycobacterium tuberculosis rABC (Mycobacterium tuberculosis H37Rv, UniProt P9WQK3 1-558).
T5 construct: also called rABC transporter; pHis-abc product
T5 sequence: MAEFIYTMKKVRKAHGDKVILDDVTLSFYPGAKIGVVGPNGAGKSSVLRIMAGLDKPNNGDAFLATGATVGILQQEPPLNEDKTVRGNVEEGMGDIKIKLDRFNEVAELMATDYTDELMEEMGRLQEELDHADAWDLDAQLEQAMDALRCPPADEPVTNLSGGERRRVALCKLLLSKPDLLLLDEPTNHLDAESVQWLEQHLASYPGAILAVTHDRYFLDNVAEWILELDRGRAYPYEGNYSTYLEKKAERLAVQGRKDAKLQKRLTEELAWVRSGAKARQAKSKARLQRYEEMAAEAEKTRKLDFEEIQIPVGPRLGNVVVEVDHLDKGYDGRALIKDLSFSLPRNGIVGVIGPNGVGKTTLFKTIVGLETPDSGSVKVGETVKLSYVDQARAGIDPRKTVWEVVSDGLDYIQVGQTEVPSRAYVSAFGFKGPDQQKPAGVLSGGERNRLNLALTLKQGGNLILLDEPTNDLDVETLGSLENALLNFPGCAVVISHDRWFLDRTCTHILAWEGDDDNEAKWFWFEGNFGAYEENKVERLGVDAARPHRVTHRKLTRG
The experiment in a line: SPR; Biacore X, CM5 chip; human SAA1 amine-coupled (7850 RU), BSA chip as control and blank; native recombinant Mtb proteins as analytes; 22-25 °C; HBS-EP pH 7.4 (0.01 M HEPES, 0.15 M NaCl, 3 mM EDTA, 0.005% P20); flow 5 or 20 µL/min; global fit, Langmuir 1:1 with drifting baseline.

The target of test [6] is T1, recombinant Mycobacterium tuberculosis …. The description is as above.
Test [7] addresses T2, recombinant Mycobacterium tuberculosis …. The description is as above.
For test [8], the target named is T3, recombinant Mycobacterium tuberculosis …. The description is as above.
The target of test [9] is T4, recombinant Mycobacterium tuberculosis …. Described as above.

T1 sequence (P9WJD9 whole entry): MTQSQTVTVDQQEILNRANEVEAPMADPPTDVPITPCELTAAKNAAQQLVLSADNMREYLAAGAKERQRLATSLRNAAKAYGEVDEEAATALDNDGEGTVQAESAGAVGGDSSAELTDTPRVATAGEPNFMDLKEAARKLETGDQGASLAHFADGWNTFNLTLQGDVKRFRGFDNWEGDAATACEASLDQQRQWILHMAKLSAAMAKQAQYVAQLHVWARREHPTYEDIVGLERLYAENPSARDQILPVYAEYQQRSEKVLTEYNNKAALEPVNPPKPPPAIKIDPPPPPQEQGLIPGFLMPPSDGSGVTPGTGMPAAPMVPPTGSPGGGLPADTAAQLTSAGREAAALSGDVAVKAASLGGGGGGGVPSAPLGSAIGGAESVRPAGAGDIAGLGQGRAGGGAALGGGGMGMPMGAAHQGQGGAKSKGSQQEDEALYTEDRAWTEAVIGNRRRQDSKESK
T4 sequence (P9WPU7 whole entry): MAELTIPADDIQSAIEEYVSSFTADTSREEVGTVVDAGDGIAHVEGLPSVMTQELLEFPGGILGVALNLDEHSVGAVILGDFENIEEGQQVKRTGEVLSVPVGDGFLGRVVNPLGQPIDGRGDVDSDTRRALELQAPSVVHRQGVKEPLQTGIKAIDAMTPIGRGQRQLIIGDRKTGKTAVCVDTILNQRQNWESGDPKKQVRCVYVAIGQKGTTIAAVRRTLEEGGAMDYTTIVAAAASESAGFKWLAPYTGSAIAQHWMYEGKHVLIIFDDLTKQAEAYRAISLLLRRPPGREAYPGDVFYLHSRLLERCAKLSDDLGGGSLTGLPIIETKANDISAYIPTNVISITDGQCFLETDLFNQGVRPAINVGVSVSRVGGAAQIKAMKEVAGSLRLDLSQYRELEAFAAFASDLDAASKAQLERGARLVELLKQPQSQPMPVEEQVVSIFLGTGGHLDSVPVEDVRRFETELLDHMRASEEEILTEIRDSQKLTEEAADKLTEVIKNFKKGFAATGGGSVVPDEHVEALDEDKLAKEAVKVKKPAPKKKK

B1: biotin-labeled recombinant human SAA1 (natural protein, UniProt P0DJI8 19-122, looked up)
chain: RSFFSFLGEAFDGARDMWRAYSDMREANYIGSDKYFHARGNYDAAKRGPGGAWAAEVITDARENIQRFFGHGAEDSLADQAANEWGRSGKDPNHFRPAGLPEKY
modifications: biotin (Sulfo-NHS-biotin labeling; sites not stated)
notes: serum amyloid A1 (SAA1), human, recombinant, bought from Sigma Aldrich; Same bought protein as m1, biotinylated; detected with streptavidin-HRP; also called biotinylated SAA1; biotin-labeled human SAA1; source: bought: Sigma Aldrich (recombinant), labeled with EZ-Link Micro Sulfo-NHS-Biotinylation Kit
Take B1: the binding result in test [1], in test [2], in [3] and in test [4] was “binds” each time.

B2: recombinant human serum amyloid A (SAA1) (natural protein, UniProt P0DJI8 19-122, looked up)
chain: RSFFSFLGEAFDGARDMWRAYSDMREANYIGSDKYFHARGNYDAAKRGPGGAWAAEVITDARENIQRFFGHGAEDSLADQAANEWGRSGKDPNHFRPAGLPEKY
notes: serum amyloid A1 (SAA1), human, recombinant, bought from Sigma Aldrich; also called human SAA1; human acute phase protein; source: bought: Sigma Aldrich (recombinant)
The Kd is the free concentration of one partner at which half of the binding sites on the other are occupied at equilibrium, for simple one-to-one binding. Regarding B2, the Kd in [5] is 11.3 µM; in test [6], 5.06 µM; in [7] it was 8.5 µM; in test [8], 7.53 µM; in test [9], 0.194 µM.
